Sequences and labels used below:
B1: murine J591 (antibody, V domains shown)
VH: EVQLQQSGPELVKPGTSVRISCKTSGYTFTEYTIHWVKQSHGKSLEWIGNINPNNGGTTYNQKFEDKATLTVDKSSSTAYMELRSLTSEDSAVYYCAAGWNFDYWGQGTTLTVSS
VL: DIVMTQSHKFMSTSVGDRVSIICKASQDVGTAVDWYQQKPGQSPKLLIYWASTRHTGVPDRFTGSGSGTDFTLTITNVQSEDLADYFCQQYNSYPLTFGAGTMLDLKR
notes: also called original mouse antibody J591; mouse J591
B2: huJ591 (J591_VH-2 + J591_VL-1) (antibody, human IgG1, V domains shown)
VH: QVQLVQSGAEVKKPGASVKVSCKASGYTFTEYTMHWVRQAPGQGLEWMGNINPNNGGTTYNQKFQGRVTMTVDKSISTAYMELSRLRSDDTAVYYCAAGWNFDYWGQGTLVTVSS
VL: DIQLTQSPSFLSASVGDRVTITCRASQDVGTALDWYQQKPGKAPKLLIYWASTLHSGVPSRFSGSGSGTEFTLTISSLQPEDFATYYCQQYNSYPLTFGQGTKLEIK
notes: One of the 9 huJ591 versions; Human IgG1 frameworks
B3: huJ591 (J591_VH-3 + J591_VL-3) (antibody, human IgG1, V domains shown)
VH: B2 VH with G44R, N61S, M70I, I76A, R85S, D89E
VL: B2 VL with Q3V, L4M, F10S, K45E, T53S, S63R, E70D, L78V
notes: as for B2
B4: huJ591 clone having combination of J591_VL-1 and J591_VH-3 (antibody, V domains shown)
VH: B2 VH with G44R, N61S, M70I, I76A, R85S, D89E
VL: DIQLTQSPSFLSASVGDRVTITCRASQDVGTALDWYQQKPGKAPKLLIYWASTLHSGVPSRFSGSGSGTEFTLTISSLQPEDFATYYCQQYNSYPLTFGQGTKLEIKR
notes: also called the select clone
B5: huJ591 (J591_VH-1 + J591_VL-3) (antibody, human IgG1, V domains shown)
VH: B2 VH with N61A, V72R
VL: B2 VL with Q3V, L4M, F10S, K45E, T53S, S63R, E70D, L78V
notes: as for B2
B6: huJ591 (J591_VH-2 + J591_VL-3) (antibody, human IgG1, V domains shown)
VH: B2 VH
VL: B2 VL with Q3V, L4M, F10S, K45E, T53S, S63R, E70D, L78V
notes: as for B2
B7: huJ591 (J591_VH-1 + J591_VL-2) (antibody, human IgG1, V domains shown)
VH: B2 VH with N61A, V72R
VL: B2 VL with L54R
notes: as for B2
B8: huJ591 (J591_VH-1 + J591_VL-1) (antibody, human IgG1, V domains shown)
VH: B2 VH with N61A, V72R
VL: B2 VL
notes: One of the 9 huJ591 versions made from three heavy and three light chain designs; Human IgG1 frameworks, expressed in CHO cells
B9: huJ591 (J591_VH-3 + J591_VL-2) (antibody, human IgG1, V domains shown)
VH: B2 VH with G44R, N61S, M70I, I76A, R85S, D89E
VL: B2 VL with L54R
notes: as for B2
B10: huJ591 (J591_VH-2 + J591_VL-2) (antibody, human IgG1, V domains shown)
VH: B2 VH
VL: B2 VL with L54R
notes: as for B2
B11: anti-PSMAxhuC825 clone BC192 (PSMA LALA) (bispecific antibody, human IgG1, kappa, L234A L235A)
light: DIQLTQSPSFLSASVGDRVTITCRASQDVGTALDWYQQKPGKAPKLLIYWASTLHSGVPSRFSGSGSGTEFTLTISSLQPEDFATYYCQQYNSYPLTFGQGTKLEIKRTVAAPSVFIFPPSDEQLKSGTASVVCLLNNFYPREAKVQWKVDNALQSGNSQESVTEQDSKDSTYSLSSTLTLSKADYEKHKVYACEVTHQGLSSPVTKSFNRGECTSGGGGSGGGGSGGGGSHVQLVESGGGLVQPGGSLRLSCAASGFSLTDYGVHWVRQAPGKGLEWLGVIWSGGGTAYNTALISRFTISRDNSKNTLYLQMNSLRAEDTAVYYCARRGSYPYNYFDAWGCGTLVTVSSGGGGSGGGGSGGGGSGGGGSGGGGSGGGGSQAVVTQEPSLTVSPGGTVTLTCGSSTGAVTASNYANWVQQKPGQCPRGLIGGHNNRPPGVPARFSGSLLGGKAALTLLGAQPEDEAEYYCALWYSDHWVIGGGTKLTVLG
heavy: not shown
B12: humanized anti-PSMAxCD3 BsAb BC243 (H2L3) (bispecific antibody, human IgG1, kappa, N297A)
light: DIVMTQSPSSLSASVGDRVTITCRASQDVGTALDWYQQKPGKAPELLIYWASSLHSGVPSRFRGSGSGTDFTLTISSVQPEDFATYYCQQYNSYPLTFGQGTKLEIKRTVAAPSVFIFPPSDEQLKSGTASVVCLLNNFYPREAKVQWKVDNALQSGNSQESVTEQDSKDSTYSLSSTLTLSKADYEKHKVYACEVTHQGLSSPVTKSFNRGECTSGGGGSGGGGSGGGGSQVQLVQSGGGVVQPGRSLRLSCKASGYTFTRYTMHWVRQAPGKCLEWIGYINPSRGYTNYNQKFKDRFTISRDNSKNTAFLQMDSLRPEDTGVYFCARYYDDHYSLDYWGQGTPVTVSSGGGGSGGGGSGGGGSGGGGSGGGGSGGGGSDIQMTQSPSSLSASVGDRVTITCSASSSVSYMNWYQQTPGKAPKRWIYDTSKLASGVPSRFSGSGSGTDYTFTISSLQPEDIATYYCQQWSSNPFTFGCGTKLQITR
heavy: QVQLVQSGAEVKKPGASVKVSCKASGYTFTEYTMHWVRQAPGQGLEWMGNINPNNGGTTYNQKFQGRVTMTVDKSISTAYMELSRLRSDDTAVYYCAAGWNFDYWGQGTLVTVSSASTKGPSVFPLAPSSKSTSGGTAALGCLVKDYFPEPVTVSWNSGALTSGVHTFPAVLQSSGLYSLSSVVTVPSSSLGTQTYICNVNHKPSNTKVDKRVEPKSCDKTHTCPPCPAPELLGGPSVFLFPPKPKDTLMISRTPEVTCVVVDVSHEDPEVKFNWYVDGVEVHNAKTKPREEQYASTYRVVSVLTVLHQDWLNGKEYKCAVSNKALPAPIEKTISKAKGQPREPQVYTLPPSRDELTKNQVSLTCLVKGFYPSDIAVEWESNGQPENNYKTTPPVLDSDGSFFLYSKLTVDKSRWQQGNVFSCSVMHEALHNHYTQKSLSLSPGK
notes: IgG(L)-scFv format, J591_VL-3 + J591_VH-2
B13: humanized anti-PSMAxCD3 BsAb BC245 (H3L3) (bispecific antibody, human IgG1, kappa, N297A)
light: B12 light
heavy: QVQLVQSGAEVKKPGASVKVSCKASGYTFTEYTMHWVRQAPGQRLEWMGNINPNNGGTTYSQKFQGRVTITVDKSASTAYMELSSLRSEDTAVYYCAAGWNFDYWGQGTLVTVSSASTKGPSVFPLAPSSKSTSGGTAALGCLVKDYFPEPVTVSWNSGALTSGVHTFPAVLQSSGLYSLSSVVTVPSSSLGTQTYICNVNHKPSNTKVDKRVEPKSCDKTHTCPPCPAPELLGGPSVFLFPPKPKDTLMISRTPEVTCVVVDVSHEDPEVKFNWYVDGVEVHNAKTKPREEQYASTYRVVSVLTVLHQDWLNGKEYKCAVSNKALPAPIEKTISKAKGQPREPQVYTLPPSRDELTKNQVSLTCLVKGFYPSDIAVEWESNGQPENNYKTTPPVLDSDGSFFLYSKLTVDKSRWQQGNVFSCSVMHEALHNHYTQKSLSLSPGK
notes: IgG(L)-scFv format, J591_VL-3 + J591_VH-3
B14: humanized anti-PSMAxCD3 BsAb BC244a (H2L1) (bispecific antibody, human IgG1, kappa, N297A)
light: B12 light with V3Q, M4L, S10F, E45K, S53T, R63S, D70E, V78L
heavy: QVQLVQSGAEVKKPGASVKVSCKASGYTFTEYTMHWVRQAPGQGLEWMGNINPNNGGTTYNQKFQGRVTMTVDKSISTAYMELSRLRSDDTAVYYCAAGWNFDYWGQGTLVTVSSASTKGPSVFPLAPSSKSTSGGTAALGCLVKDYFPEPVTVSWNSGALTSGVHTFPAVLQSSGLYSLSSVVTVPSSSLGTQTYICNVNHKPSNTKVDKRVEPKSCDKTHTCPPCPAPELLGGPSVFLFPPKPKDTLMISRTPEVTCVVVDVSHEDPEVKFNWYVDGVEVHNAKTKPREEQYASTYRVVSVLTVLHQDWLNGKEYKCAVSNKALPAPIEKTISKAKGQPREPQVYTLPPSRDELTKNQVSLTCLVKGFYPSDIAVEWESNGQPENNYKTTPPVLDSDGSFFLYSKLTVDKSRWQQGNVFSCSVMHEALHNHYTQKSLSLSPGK
notes: IgG(L)-scFv format

Consider 14 molecules from patent US20230374150A1 (Memorial Sloan Kettering, published 2023).

Positions count from the first letter of the chain named.

As usually defined, the Kd is a measure of binding affinity in units of concentration. By koff is commonly meant the first-order rate constant of dissociation. In general, kon refers to the rate constant with which the complex forms.

For one experiment, the target named is T1, Human PSMA antigen (human, UniProt Q04609 44-750, limits assumed).
T1 construct: This is the antigen immobilised on the Biacore chip; also called FOLH1_HUMAN
T1 sequence (Q04609 44-750 limits assumed): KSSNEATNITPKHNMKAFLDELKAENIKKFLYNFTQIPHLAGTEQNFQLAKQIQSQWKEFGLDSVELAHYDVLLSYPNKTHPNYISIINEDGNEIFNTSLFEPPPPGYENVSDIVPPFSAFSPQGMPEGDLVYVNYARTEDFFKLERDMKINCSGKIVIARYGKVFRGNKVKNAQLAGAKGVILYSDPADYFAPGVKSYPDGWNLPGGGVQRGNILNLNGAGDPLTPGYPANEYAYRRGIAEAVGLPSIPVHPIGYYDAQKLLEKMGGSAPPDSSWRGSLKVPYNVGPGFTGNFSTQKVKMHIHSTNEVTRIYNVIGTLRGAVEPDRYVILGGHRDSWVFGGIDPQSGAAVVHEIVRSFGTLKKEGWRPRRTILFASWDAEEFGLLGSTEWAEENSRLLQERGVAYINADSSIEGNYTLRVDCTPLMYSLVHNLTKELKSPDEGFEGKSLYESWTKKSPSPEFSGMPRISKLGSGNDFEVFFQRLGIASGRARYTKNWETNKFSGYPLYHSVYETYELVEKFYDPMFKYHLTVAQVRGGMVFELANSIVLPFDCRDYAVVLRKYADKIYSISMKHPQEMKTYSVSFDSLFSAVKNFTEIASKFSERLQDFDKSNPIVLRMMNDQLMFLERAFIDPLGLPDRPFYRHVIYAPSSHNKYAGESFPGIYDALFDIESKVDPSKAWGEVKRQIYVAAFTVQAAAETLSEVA
In words: SPR (Biacore), 37 C, antibody over immobilized PSMA. The text has this: The calculated kinetic parameters derived from SPR are shown in FIG. 4C, showing distinct differences in affinities when compared to the chimeric and the original mouse antibody J591. Increased affinity of anti-PSMA antibodies should translate into higher potency, while lower affinity anti-PSMA antibodies into lower toxicity. This affinity modulation is achieved without altering the CDR sequences. Based on the binding kinetics, the clone having combination of J591_VL-1 and J591_VH-3, which has near identical binding kinetics to those of J591 chimeric antibody, was chosen to build the PSMA-BsAb (BC244) of the present technology. The amino acid sequences of the light chain (SEQ ID NO: 11) and the heavy chain (SEQ ID NO: 12) of the select clone are shown in FIG. 12. Mutation N297A was used to remove glycosylation, and K322A to minimize complement activation.
Take B1: the Kd was found to be 6.39 nM, the “fold-change KD relative to chimeric” value was 31 fold, the koff stood at 0.000113 s⁻¹ and the kon was determined as 17700 M⁻¹ s⁻¹.

With B2, the Kd is 3.54 nM, the “fold-change KD relative to chimeric” value is 17.2 fold, the koff worked out at 0.000176 s⁻¹ and the kon was 49700 M⁻¹ s⁻¹.

Turning to B3, the Kd amounted to 11.9 nM, the “fold-change KD relative to chimeric” value was 57.8 fold, the koff worked out at 0.00057 s⁻¹ and the kon was 47900 M⁻¹ s⁻¹.

Take B4: the Kd turned out to be 1.67 nM, the “fold-change KD relative to chimeric” value was 8.1 fold, the koff amounted to 9.69e-05 s⁻¹ and the kon was determined as 58200 M⁻¹ s⁻¹.

Consider B5, for which the Kd worked out at 3.55 nM, the “fold-change KD relative to chimeric” value is 17.2 fold, the koff amounted to 0.000285 s⁻¹ and the kon amounted to 80500 M⁻¹ s⁻¹.

Turning to B6, the Kd turned out to be 3.48 nM, the “fold-change KD relative to chimeric” value turned out to be 16.9 fold, the koff stood at 0.000211 s⁻¹ and the kon is 60600 M⁻¹ s⁻¹.

On to B7, for which the Kd amounted to 4.86 nM, the “fold-change KD relative to chimeric” value worked out at 23.6 fold, the koff was found to be 0.000379 s⁻¹ and the kon was 77900 M⁻¹ s⁻¹.

Turning to B8, the dissociation constant Kd stood at 3.32 nM, the “fold-change KD relative to chimeric” value came out at 16.1 fold, the koff is 0.000228 s⁻¹ and the kon was determined as 68600 M⁻¹ s⁻¹.

Regarding B9, the Kd was 2.54 nM, the “fold-change KD relative to chimeric” value was 12.3 fold, the koff amounted to 0.000146 s⁻¹ and the kon was determined as 57400 M⁻¹ s⁻¹.

On to B10, for which the Kd was 4.81 nM, the “fold-change KD relative to chimeric” value worked out at 23.3 fold, the koff was 0.000286 s⁻¹ and the on-rate constant (kon) amounted to 59400 M⁻¹ s⁻¹.

For another experiment, the target named is T1, Human PSMA antigen. Nature of the experiment: SPR Biacore, immobilised human PSMA, 37 C, 1:1 fit. The procedure: (§1) PSMA-BsAb Biacore Settings. Human PSMA antigen was immobilized directly on Fc2 at 3000 RU, and cynomolgus PSMA (ACRO) on Fc4 at 3000 RU (Blank on Fc1 and Fc3 as controls). Abs were run through the system at 37° C., at concentrations of 250 and 500 nM, with association time 1 min, dissociation time 15 min. Regeneration was performed at 30 mM NaOH. All data were fitted with 1:1 model.
On the technique in general: SPR reads the build-up and loss of mass on a sensor chip optically.
On to B11, for which the dissociation constant Kd was 2.9 nM, the koff was determined as 0.000279 s⁻¹, the kon was determined as 96200 M⁻¹ s⁻¹ and the “t ½” value amounted to 41.3 min.

B12: binding was characterised by a dissociation constant (Kd) of 1.6 nM, the koff worked out at 0.000308 s⁻¹, the kon came out at 192000 M⁻¹ s⁻¹ and the “t ½” value turned out to be 37.5 min.

Regarding B13, binding was put at a Kd of 1.06 nM, the koff worked out at 0.000159 s⁻¹, the kon was 150000 M⁻¹ s⁻¹ and the “t ½” value was 72.7 min.

As to B14, binding was characterised by a dissociation constant (Kd) of 2.91 nM, the koff worked out at 0.000444 s⁻¹, the kon worked out at 152000 M⁻¹ s⁻¹ and the “t ½” value came out at 26 min.

For the next experiment, the target named is T2, cynomolgus PSMA (ACRO) (cynomolgus, UniProt A0A2K5VNZ0 44-750).
T2 construct: Immobilised on the Biacore chip
In words: SPR Biacore, immobilised cynomolgus PSMA, 37 C, 1:1 fit. How it is done:
as §1
Regarding B11, the Kd was 8.75 nM, the koff was found to be 0.000459 s⁻¹, the kon was determined as 52500 M⁻¹ s⁻¹ and the “t ½” value stood at 25.2 min.

Consider B12, for which the Kd is 3.58 nM, the koff is 0.000634 s⁻¹, the kon amounted to 177000 M⁻¹ s⁻¹ and the “t ½” value is 18.2 min.

For B13, the Kd turned out to be 2.49 nM, the koff worked out at 0.000324 s⁻¹, the kon stood at 130000 M⁻¹ s⁻¹ and the “t ½” value came to 35.7 min.

In the case of B14, the Kd is 6.67 nM, the off-rate constant (koff) came to 0.000781 s⁻¹, the kon was 117000 M⁻¹ s⁻¹ and the “t ½” value is 14.8 min.
